Experimental data from patent publication US20260274955A1 (JANUX THERAPEUTICS, published 2026).

Legend:
[1] = target: T1, anti-CD28 Fab (SEQ ID NOs: 202, 203); assay: phage binding ELISA; biotinylated Fab on neutravidin plate;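 also: clonal phage supernatants added to Fab wells pretreated with CD28 antigen or with blocking buffer only, bound phage read out via HRP-linked anti-M13 antibody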
T1 construct: biotinylated and captured on neutravidin coated plates in the phage ELISA
Protocol: (§1) Clonal phage were harvested as crude supernatants and screened via standard ELISAs. […] Prior to the addition of clonal phage, wells were incubated with blocking buffer and CD28 antigen or blocking buffer alone. Without washing or aspirating, clonal phage supernatants were then added to the wells and incubated for a short time. Wells were then washed followed by detection of bound phage using a horse radish conjugated anti-M13 antibody.

[2] = target: T1, anti-CD28 Fab (SEQ ID NOs: 202, 203); assay: phage binding ELISA; Fab wells pre-incubated with CD28 antigen (competitor);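 also: clonal phage supernatants added to wells preincubated with CD28 antigen in blocking buffer versus blocking buffer alone, washed, bound phage read by HRP-conjugated anti-M13 antibody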
Protocol: as §1

T1 sequence (VH, as listed by the source, chain 1 of 2): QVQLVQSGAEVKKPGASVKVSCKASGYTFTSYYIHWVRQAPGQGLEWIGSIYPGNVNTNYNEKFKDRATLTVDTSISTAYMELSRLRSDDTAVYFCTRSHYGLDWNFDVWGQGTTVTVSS
T1 sequence (VL, as listed by the source, chain 2 of 2): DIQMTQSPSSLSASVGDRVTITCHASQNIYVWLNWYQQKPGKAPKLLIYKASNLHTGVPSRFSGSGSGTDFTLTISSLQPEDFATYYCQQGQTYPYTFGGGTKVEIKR

Row | Binder | Anti-CD28 Fab (SEQ ID NOs: 202, 203) signal [1] | Anti-CD28 Fab signal in the presence of CD28 [2]
1 | YCQGHSAEYMMKCL [Phage-364] | 1.81 | 0.07
2 | YCEGHSPQYVQKCL [Phage-384] | 1.77 | 0.06
3 | YCAGHAEQYMAKCL [Phage-370] | 1.8 | 0.08
4 | YCDGHLGVYMAKCL [Phage-372] | 1.79 | 0.07
5 | YCAGHVPEYMAKCL [Phage-379] | 1.78 | 0.07
6 | YCAGHLQEYMQKCL [Phage-445] | 1.69 | 0.07
7 | YCAGHSPLYMLKCL [Phage-442] | 1.7 | 0.1
8 | YCDGHSAEYITKCL [Phage-380] | 1.77 | 0.06
9 | YCVGHAPEFMAKCL [Phage-369] | 1.8 | 0.1
10 | YCDGHTREYIDKCL [Phage-368] | 1.8 | 0.08
11 | YCEGHLDEYMWKCL [Phage-381] | 1.77 | 0.06
12 | YCDGHAWEYMTKCL [Phage-448] | 1.69 | 0.35
13 | YCDGHLPVYLEKCL [Phage-444] | 1.69 | 0.06
14 | YCDGHKAEYMEKCL [Phage-366] | 1.81 | 0.09
15 | YCDGHLDEYMEKCL [Phage-386] | 1.76 | 0.08
16 | YCEGHSPWYMNKCL [Phage-449] | 1.68 | 0.06
17 | YCAGHLPMYMAKCL [Phage-367] | 1.8 | 0.08
18 | YCDGLASEYMSKCL [Phage-382] | 1.77 | 0.05
19 | YCDGHTSEYITKCL [Phage-373] | 1.79 | 0.07
20 | YCAGHLPEYMLKCL [Phage-387] | 1.76 | 0.09
